Data from patent US20240167082A1.

Biological target: CD3 (cell surface marker on Jurkat cells and on Ramos cells) (human) (UniProt P07766)
Assay: cell-based or functional assay

UniProt P07766, sequence (P07766 23-207): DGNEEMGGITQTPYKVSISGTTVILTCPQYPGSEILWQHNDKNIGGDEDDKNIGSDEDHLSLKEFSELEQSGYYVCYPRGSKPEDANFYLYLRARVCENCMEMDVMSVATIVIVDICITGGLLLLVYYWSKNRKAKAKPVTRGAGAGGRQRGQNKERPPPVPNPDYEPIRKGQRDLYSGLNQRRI

share of drops with labelled cells that cross the Cy5 fluorescence threshold: > 95%
time at which drops cross the Cy5 fluorescence threshold: 20 to 50 min
time at which drops cross the Cy5 fluorescence threshold, Jurkat cells in droplets: 20 to 38 min
time to Cy5 fluorescence in drops with Jurkat cells from a mixed Jurkat and mouse pool: 20 min
Substance: TotalSeqB anti-CD3 antibody (Biolegend cat no. 300477; anti-human CD3-totalseqB Ab, clone UCHT1)
